Measured values: patent US20240192215A1 (E AND S HEALTHCARE, published 2024)
One block for each binder: values may come before it.

Key:
Peptide_046 [1] = target: T1, Peptide_046 (human); assay: peptide microarray, 5 ug/mL
T1 construct: 15-mer of hTrx1 on microarray
T1 peptide: ATWCGPCKMIKPFFH
Protocol: (§1) 5, 1, 0.2, 0.04, 0.008 and 0.0016 μg/mL serial dilutions were incubated on a single multi-well microarray slide at 30° C. for 1 hour. The slide includes 21 individual mini-arrays (one mini-array per sample dilution).
(§2) DyLight 650 was used as a label. False-positive binding to a peptide was evaluated by performing one additional control incubation in which only a secondary antibody was applied on the same microarray slide. Before performing each step, the microarrays were washed with a washing buffer.

Peptide_047 [2] = target: T2, Peptide_047 (human); assay: peptide microarray, 5 ug/mL
T2 construct: 15-mer of hTrx1 on microarray
T2 peptide: TWCGPCKMIKPFFHS
Protocol: as §1, §2

Peptide_048 [3] = target: T3, Peptide_048 (human); assay: peptide microarray, 5 ug/mL
T3 construct: 15-mer of hTrx1 on microarray
T3 peptide: WCGPCKMIKPFFHSL
Protocol: as §1, §2

Peptide_049 [4] = target: T4, Peptide_049 (human); assay: peptide microarray, 5 ug/mL
T4 construct: 15-mer of hTrx1 on microarray
T4 peptide: CGPCKMIKPFFHSLS
Protocol: as §1, §2

Peptide_050 [5] = target: T5, Peptide_050 (human); assay: peptide microarray, 5 ug/mL
T5 construct: 15-mer of hTrx1 on microarray
T5 peptide: GPCKMIKPFFHSLSE
Protocol: as §1, §2

Peptide_052 [6] = target: T6, Peptide_052 (human); assay: peptide microarray, 5 ug/mL
T6 construct: 15-mer of hTrx1 on microarray
T6 peptide: CKMIKPFFHSLSEKY
Protocol: as §1, §2

Peptide_053 [7] = target: T7, Peptide_053 (human); assay: peptide microarray, 5 ug/mL
T7 construct: 15-mer of hTrx1 on microarray
T7 peptide: KMIKPFFHSLSEKYS
Protocol: as §1, §2

Peptide_054 [8] = target: T8, Peptide_054 (human); assay: peptide microarray, 5 ug/mL
T8 construct: 15-mer of hTrx1 on microarray
T8 peptide: MIKPFFHSLSEKYSN
Protocol: as §1, §2

Peptide_055 [9] = target: T9, Peptide_055 (human); assay: peptide microarray, 5 ug/mL
T9 construct: 15-mer of hTrx1 on microarray
T9 peptide: IKPFFHSLSEKYSNV
Protocol: as §1, §2

Peptide_056 [10] = target: T10, Peptide_056 (human); assay: peptide microarray, 5 ug/mL
T10 construct: 15-mer of hTrx1 on microarray
T10 peptide: KPFFHSLSEKYSNVI
Protocol: as §1, §2

Peptide_057 [11] = target: T11, Peptide_057 (human); assay: peptide microarray, 5 ug/mL
T11 construct: 15-mer of hTrx1 on microarray
T11 peptide: PFFHSLSEKYSNVIF
Protocol: as §1, §2

[12] = target: T12, human thioredoxin-1 (Trx1) (human, UniProt P10599 1-105); assay: ELISA on 200 ng coated hTrx1
T12 construct: also called hTrx1; hTRX1
T12 sequence (looked up): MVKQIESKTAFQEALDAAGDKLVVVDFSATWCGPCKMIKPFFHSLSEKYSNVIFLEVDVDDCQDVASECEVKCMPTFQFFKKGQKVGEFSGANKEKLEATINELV
Protocol: A reaction solution was removed, followed by washing five times with 200 μL of 1×PBST. […] A reaction solution was removed, and washed five times with 200 μL of 1×PBST. 100 μL of a color reagent was dispensed into each well, and after a 10-minute reaction, 50 μL of 2.5M H₂SO₄ was dispensed into each well. After color development, the extent of the color development was assessed using an ELISA reader.

Peptide_050 [13] = target: T5, Peptide_050; assay: peptide microarray, 0.2 ug/mL
Protocol: as §1, §2

Peptide_046 [14] = target: T1, Peptide_046; assay: peptide microarray, 0.04 ug/mL
Protocol: as §1, §2

Peptide_047 [15] = target: T2, Peptide_047; assay: peptide microarray, 0.04 ug/mL
Protocol: as §1, §2

Peptide_048 [16] = target: T3, Peptide_048; assay: peptide microarray, 0.04 ug/mL
Protocol: as §1, §2

Peptide_049 [17] = target: T4, Peptide_049; assay: peptide microarray, 0.04 ug/mL
Protocol: as §1, §2

Peptide_050 [18] = target: T5, Peptide_050; assay: peptide microarray, 0.04 ug/mL
Protocol: as §1, §2

Peptide_052 [19] = target: T6, Peptide_052; assay: peptide microarray, 0.04 ug/mL
Protocol: as §1, §2

Peptide_053 [20] = target: T7, Peptide_053; assay: peptide microarray, 0.04 ug/mL
Protocol: as §1, §2

Peptide_054 [21] = target: T8, Peptide_054; assay: peptide microarray, 0.04 ug/mL
Protocol: as §1, §2

Peptide_055 [22] = target: T9, Peptide_055; assay: peptide microarray, 0.04 ug/mL
Protocol: as §1, §2

Peptide_056 [23] = target: T10, Peptide_056; assay: peptide microarray, 0.04 ug/mL
Protocol: as §1, §2

Peptide_057 [24] = target: T11, Peptide_057; assay: peptide microarray, 0.04 ug/mL
Protocol: as §1, §2

Peptide_046 [25] = target: T1, Peptide_046; assay: peptide microarray, 0.0016 ug/mL
Protocol: as §1, §2

Peptide_047 [26] = target: T2, Peptide_047; assay: peptide microarray, 0.0016 ug/mL
Protocol: as §1, §2

Peptide_048 [27] = target: T3, Peptide_048; assay: peptide microarray, 0.0016 ug/mL
Protocol: as §1, §2

Peptide_049 [28] = target: T4, Peptide_049; assay: peptide microarray, 0.0016 ug/mL
Protocol: as §1, §2

Peptide_050 [29] = target: T5, Peptide_050; assay: peptide microarray, 0.0016 ug/mL
Protocol: as §1, §2

Peptide_052 [30] = target: T6, Peptide_052; assay: peptide microarray, 0.0016 ug/mL
Protocol: as §1, §2

Peptide_053 [31] = target: T7, Peptide_053; assay: peptide microarray, 0.0016 ug/mL
Protocol: as §1, §2

Peptide_054 [32] = target: T8, Peptide_054; assay: peptide microarray, 0.0016 ug/mL
Protocol: as §1, §2

Peptide_055 [33] = target: T9, Peptide_055; assay: peptide microarray, 0.0016 ug/mL
Protocol: as §1, §2

Peptide_056 [34] = target: T10, Peptide_056; assay: peptide microarray, 0.0016 ug/mL
Protocol: as §1, §2

Peptide_057 [35] = target: T11, Peptide_057; assay: peptide microarray, 0.0016 ug/mL
Protocol: as §1, §2

[36] = target: T12, human thioredoxin-1 (Trx1); assay: ELISA on 100 ng coated Trx1, antibody titration, Prism fit
Protocol: 100 μl of a coating buffer and 100 ng of Trx1 were mixed and dispensed to each well, and then reacted at 4° C. for 16 hours or more. After the reaction solution was removed, 200 μl of PBSA was dispensed to each well and reacted at 37° C. for 120 minutes. […] After the reaction solution was removed, washing was performed by dispensing 200 μl of a washing buffer to each well. The above-described process was performed two times.
After the reaction solution was removed, washing was performed by dispensing 200 μl of a washing buffer to each well. The above-described process was performed three times.

- signal (blank-control = 1) (Peptide_046 [1]): 6.41
- signal (blank-control = 1) (Peptide_047 [2]): 5.58
- signal (blank-control = 1) (Peptide_048 [3]): 6.1
- signal (blank-control = 1) (Peptide_049 [4]): 2.89
- signal (blank-control = 1) (Peptide_050 [5]): 2.19
- signal (blank-control = 1) (Peptide_052 [6]): 3.84
- signal (blank-control = 1) (Peptide_053 [7]): 2.45
- signal (blank-control = 1) (Peptide_054 [8]): 2.36
- signal (blank-control = 1) (Peptide_055 [9]): 2.08
- signal (blank-control = 1) (Peptide_056 [10]): 2.89
- signal (blank-control = 1) (Peptide_057 [11]): 2.39
- Kd [12]: 0.21 nM
- signal (blank-control = 1) (Peptide_050 [13]): 0.65
- signal (blank-control = 1) (Peptide_046 [14]): 1.96
- signal (blank-control = 1) (Peptide_047 [15]): 1.5
- signal (blank-control = 1) (Peptide_048 [16]): 6.57
- signal (blank-control = 1) (Peptide_049 [17]): 1.51
- signal (blank-control = 1) (Peptide_050 [18]): 0.68
- signal (blank-control = 1) (Peptide_052 [19]): 1.23
- signal (blank-control = 1) (Peptide_053 [20]): 1.35
- signal (blank-control = 1) (Peptide_054 [21]): 0.71
- signal (blank-control = 1) (Peptide_055 [22]): 1.41
- signal (blank-control = 1) (Peptide_056 [23]): 1.11
- signal (blank-control = 1) (Peptide_057 [24]): 1.87
- signal (blank-control = 1) (Peptide_046 [25]): 1.79
- signal (blank-control = 1) (Peptide_047 [26]): 1.18
- signal (blank-control = 1) (Peptide_048 [27]): 7.61
- signal (blank-control = 1) (Peptide_049 [28]): 1.37
- signal (blank-control = 1) (Peptide_050 [29]): 0.62
- signal (blank-control = 1) (Peptide_052 [30]): 1.37
- signal (blank-control = 1) (Peptide_053 [31]): 1.42
- signal (blank-control = 1) (Peptide_054 [32]): 0.73
- signal (blank-control = 1) (Peptide_055 [33]): 1.05
- signal (blank-control = 1) (Peptide_056 [34]): 1.18
- signal (blank-control = 1) (Peptide_057 [35]): 1.93
- Kd [36]: 0.011 nM
B1: monoclonal antibody B266-1 (antibody, human IgG1)
light: QIVLTQSPAIMSASPGEKVTMTCSASSRISYMYWYQQKPGTSPKRWIYDTSKLASGVPARFSGSGSGTSYSLTISTMEAEDAATYYCHQRSSYPTFGAGTKLELKSVAAPSVFIFPPSDEQLKSGTASVVCLLNNFYPREAKVQWKVDNALQSGNSQESVTEQDSKDSTYSLSSTLTLSKADYEKHKVYACEVTHQGLSSPVTKSFNRGEC
heavy: not shown
notes: B266 with the Fc part changed to human IgG1; also called B266-1 (Trx1-hIgG1); B266-1 (hTrx1-hIgG1)

- signal (blank-control = 1) (Peptide_046 [1]): 6.2
- signal (blank-control = 1) (Peptide_047 [2]): 4.89
- signal (blank-control = 1) (Peptide_048 [3]): 2.15
- signal (blank-control = 1) (Peptide_049 [4]): 1.11
- signal (blank-control = 1) (Peptide_050 [5]): 0.54
- signal (blank-control = 1) (Peptide_052 [6]): 5.14
- signal (blank-control = 1) (Peptide_053 [7]): 6.49
- signal (blank-control = 1) (Peptide_054 [8]): 1.46
- signal (blank-control = 1) (Peptide_055 [9]): 3.57
- signal (blank-control = 1) (Peptide_056 [10]): 2.86
- signal (blank-control = 1) (Peptide_057 [11]): 2.44
- Kd [12]: 0.17 nM
- reaction value (OD 490) relative to B266-1 [12]: ~50%
- signal (blank-control = 1) (Peptide_050 [13]): 0.46
- signal (blank-control = 1) (Peptide_046 [14]): 2.87
- signal (blank-control = 1) (Peptide_047 [15]): 1.97
- signal (blank-control = 1) (Peptide_048 [16]): 6.34
- signal (blank-control = 1) (Peptide_049 [17]): 1.48
- signal (blank-control = 1) (Peptide_050 [18]): 0.64
- signal (blank-control = 1) (Peptide_052 [19]): 2.02
- signal (blank-control = 1) (Peptide_053 [20]): 2.54
- signal (blank-control = 1) (Peptide_054 [21]): 0.99
- signal (blank-control = 1) (Peptide_055 [22]): 1.51
- signal (blank-control = 1) (Peptide_056 [23]): 1.35
- signal (blank-control = 1) (Peptide_057 [24]): 2.15
- signal (blank-control = 1) (Peptide_046 [25]): 1.69
- signal (blank-control = 1) (Peptide_047 [26]): 1.15
- signal (blank-control = 1) (Peptide_048 [27]): 7.46
- signal (blank-control = 1) (Peptide_049 [28]): 1.18
- signal (blank-control = 1) (Peptide_050 [29]): 0.51
- signal (blank-control = 1) (Peptide_052 [30]): 1.15
- signal (blank-control = 1) (Peptide_053 [31]): 1.41
- signal (blank-control = 1) (Peptide_054 [32]): 0.55
- signal (blank-control = 1) (Peptide_055 [33]): 0.81
- signal (blank-control = 1) (Peptide_056 [34]): 0.99
- signal (blank-control = 1) (Peptide_057 [35]): 1.73
- Kd [36]: 0.13 nM
B2: monoclonal antibody B264 (antibody, mouse IgG1, kappa, V domains shown)
VH: QVQLQQSGAELARPGASVKMSCKASGYTFTSYTMHWVKQRPGQGLEWIGYINPTSDYTNYNQKFKDKATLTADKSSSTAYMQLSSLTSEDSAVYFCASEGGFLYYFDYWGQGTTLTVSS
VL: DVLMTQTPLSLPVSLGDQASISCRSSQSIVHSNGNTYLEWYLQKPGQSPKLLIYKVSNRFSGVPDRFSGSGSGTDFTLKISRVEAEDLGVYYCFQGSHVPYTFGGGTKLEIKR
notes: also called AB264; B264 (Trx1-mIgG1)
